# Experimental data as given in publication PMC8533642 (Journal of medicinal chemistry, 2021).
# Square brackets hold non-standard residues; d marks the D form. Peptide text beside a SMILES is read from it. dPhe(4-I) = N[C@H](Cc1ccc(I)cc1)C(=O)O; 2Nal = N[C@@H](Cc1ccc2ccccc2c1)C(=O)O; d2Nal = N[C@H](Cc1ccc2ccccc2c1)C(=O)O
# B1: Ac-DPhe(pI)-Arg-Trp-DLys-NH2 (peptide)
# peptide: Ac-[dPhe(4-I)]RW[dK]-NH2
# SMILES: CC(=O)N[C@H](Cc1ccc(I)cc1)C(=O)N[C@@H](CCCNC(=N)N)C(=O)N[C@@H](Cc1c[nH]c2ccccc12)C(=O)N[C@H](CCCCN)C(N)=O
# B2: Ac-DPhe(pI)-Arg-DPhe(pI)-DLys-NH2 (peptide)
# peptide: Ac-[dPhe(4-I)]R[dPhe(4-I)][dK]-NH2
# SMILES: CC(=O)N[C@H](Cc1ccc(I)cc1)C(=O)N[C@@H](CCCNC(=N)N)C(=O)N[C@H](Cc1ccc(I)cc1)C(=O)N[C@H](CCCCN)C(N)=O
# B3: Ac-DPhe(pI)-Arg-Trp-Arg-NH2 (peptide)
# peptide: Ac-[dPhe(4-I)]RWR-NH2
# SMILES: CC(=O)N[C@H](Cc1ccc(I)cc1)C(=O)N[C@@H](CCCNC(=N)N)C(=O)N[C@@H](Cc1c[nH]c2ccccc12)C(=O)N[C@@H](CCCNC(=N)N)C(N)=O
# B4: Ac-DPhe(pI)-Arg-DPhe(pI)-Arg-NH2 (peptide)
# peptide: Ac-[dPhe(4-I)]R[dPhe(4-I)]R-NH2
# SMILES: CC(=O)N[C@H](Cc1ccc(I)cc1)C(=O)N[C@@H](CCCNC(=N)N)C(=O)N[C@H](Cc1ccc(I)cc1)C(=O)N[C@@H](CCCNC(=N)N)C(N)=O
# What was measured:
# mMC3R = mMC3R (Mus musculus, UniProt P33033); experiment: AlphaScreen cAMP agonist assay, HEK293 cells stably expressing mMC3R; assay type: cell-based; details: at 100 μM
# mMC1R = mMC1R (Mus musculus, UniProt Q01727); experiment: AlphaScreen cAMP agonist assay, HEK293 cells stably expressing mMC1R; assay type: cell-based; details: for mMC1R agonist activity in words: full agonist = 90% of maximal NDP-MSH signal
# [1] = target: mouse melanocortin-4 receptor (mouse) (UniProt P56450)
# [2] = target: mouse melanocortin-5 receptor (mouse) (UniProt P41149)
# [3] = target: mouse melanocortin-1 receptor (mouse) (UniProt Q01727)
# [4] = target: mouse melanocortin-3 receptor (mouse) (UniProt P33033)
# [5] = target: mouse melanocortin-4 receptor (mouse) (UniProt P56450); remark: listed apart in the source
# [6] = target: mouse melanocortin-3 receptor (mouse) (UniProt P33033); remark: listed apart in the source
# Chain of mouse melanocortin-4 receptor (mouse) (P56450 whole entry): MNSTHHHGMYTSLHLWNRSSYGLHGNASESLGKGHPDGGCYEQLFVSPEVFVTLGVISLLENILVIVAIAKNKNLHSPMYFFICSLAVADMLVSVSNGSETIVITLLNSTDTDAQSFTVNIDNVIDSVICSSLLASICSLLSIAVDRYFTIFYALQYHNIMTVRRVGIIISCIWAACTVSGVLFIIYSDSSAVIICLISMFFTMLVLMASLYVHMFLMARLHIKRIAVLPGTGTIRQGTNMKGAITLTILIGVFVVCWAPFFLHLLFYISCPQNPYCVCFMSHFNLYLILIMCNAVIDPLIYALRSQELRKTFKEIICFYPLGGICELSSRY
# Chain of mouse melanocortin-1 receptor (mouse) (Q01727 whole entry): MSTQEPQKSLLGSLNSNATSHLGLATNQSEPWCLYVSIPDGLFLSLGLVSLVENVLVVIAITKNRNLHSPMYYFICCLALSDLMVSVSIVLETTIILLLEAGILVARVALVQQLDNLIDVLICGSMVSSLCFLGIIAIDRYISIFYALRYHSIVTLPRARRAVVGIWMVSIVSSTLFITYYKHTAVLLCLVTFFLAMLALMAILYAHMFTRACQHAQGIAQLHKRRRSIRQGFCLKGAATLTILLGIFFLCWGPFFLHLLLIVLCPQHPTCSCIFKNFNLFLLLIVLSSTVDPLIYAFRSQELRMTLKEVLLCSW
# Chain of mMC1R (Q01727 whole entry): as above
# Chain of mouse melanocortin-3 receptor (mouse) (P33033 whole entry): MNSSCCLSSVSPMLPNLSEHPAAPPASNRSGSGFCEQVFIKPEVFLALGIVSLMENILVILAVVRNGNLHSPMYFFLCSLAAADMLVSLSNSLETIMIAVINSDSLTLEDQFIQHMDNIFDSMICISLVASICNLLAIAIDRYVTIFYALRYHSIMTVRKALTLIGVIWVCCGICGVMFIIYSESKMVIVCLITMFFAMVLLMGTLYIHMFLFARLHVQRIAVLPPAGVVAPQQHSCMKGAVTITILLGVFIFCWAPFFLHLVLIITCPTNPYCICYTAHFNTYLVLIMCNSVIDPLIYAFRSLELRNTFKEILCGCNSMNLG
# Chain of mMC3R (P33033 whole entry): as above
# Chain of mouse melanocortin-5 receptor (mouse) (P41149 whole entry): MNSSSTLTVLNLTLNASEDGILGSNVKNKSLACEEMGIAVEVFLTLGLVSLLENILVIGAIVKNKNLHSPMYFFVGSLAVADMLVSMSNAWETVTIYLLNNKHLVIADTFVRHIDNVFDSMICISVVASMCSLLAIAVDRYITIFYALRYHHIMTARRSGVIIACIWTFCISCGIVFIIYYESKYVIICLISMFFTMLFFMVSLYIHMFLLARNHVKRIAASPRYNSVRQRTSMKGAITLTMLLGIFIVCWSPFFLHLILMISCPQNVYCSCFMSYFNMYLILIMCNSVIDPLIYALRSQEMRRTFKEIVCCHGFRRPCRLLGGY
Molecule,"agonist EC50, cAMP AlphaScreen [1] [µM]","agonist EC50, cAMP AlphaScreen [2] [µM]","agonist EC50, cAMP AlphaScreen [4] [µM]","pA2, antagonism of NDP-MSH at mMC4R, Schild analysis, cAMP AlphaScreen [5]","pA2, antagonism of NDP-MSH at mMC3R, Schild analysis, cAMP AlphaScreen [6]",other results
"CC(=O)N[C@H](Cc1ccc2ccccc2c1)C(=O)N[C@@H](CCCNC(=N)N)C(=O)N[C@@H](Cc1c[nH]c2ccccc12)C(=O)N[C@H](Cc1ccc2ccccc2c1)C(N)=O [Peptide 17, Ac-DNal(2’)-Arg-Trp-DNal(2’)-NH2] (Ac-[d2Nal]RW[d2Nal]-NH2)",,,,,,mMC3R percent maximal stimulatory response (compared to NDP-MSH) (mMC3R): 40% @100μM
"CC(=O)N[C@H](Cc1ccc2ccccc2c1)C(=O)N[C@@H](CCCNC(=N)N)C(=O)N[C@@H](Cc1ccc2ccccc2c1)C(=O)N[C@H](CCCCN)C(N)=O [Peptide 22, Ac-DNal(2’)-Arg-Nal(2’)-DLys-NH2] (Ac-[d2Nal]R[2Nal][dK]-NH2)",,,,,,mMC1R partial agonist percentage of receptor activation relative to NDP-MSH (mMC1R; partial agonists): 50 % NDP
"CC(=O)N[C@H](Cc1ccc2ccccc2c1)C(=O)N[C@@H](CCCNC(=N)N)C(=O)N[C@H](Cc1ccc(I)cc1)C(=O)N[C@H](CCCCN)C(N)=O [Peptide 19, Ac-DNal(2’)-Arg-DPhe(pI)-DLys-NH2]",,,,,,mMC1R agonist activity in words (mMC1R): full agonist activity
Ac-DNal(2’)-Arg-DPhe(pI)-DLys-NH2 (peptide),> 100,> 100,> 100,8.5,6.9,"agonist EC50, cAMP AlphaScreen [3]: 0.22 µM"
Ac-DNal(2’)-Arg-DNal(2’)-DNal(2’)-NH2 (peptide),,,,6.3,5.7,"% of maximal NDP-MSH response at 100 μM, cAMP AlphaScreen [1]: 45%; % of maximal NDP-MSH response at 100 μM, cAMP AlphaScreen [2]: 20%; % receptor activation relative to NDP-MSH (partial agonist), cAMP AlphaScreen [3]: 85%; apparent EC50 (partial agonist), cAMP AlphaScreen [3]: 5 µM; % of maximal NDP-MSH response at 100 μM, cAMP AlphaScreen [4]: 50%"
"CC(=O)N[C@H](Cc1ccc2ccccc2c1)C(=O)N[C@@H](CCCNC(=N)N)C(=O)N[C@H](Cc1ccc(I)cc1)C(=O)N[C@@H](CCCNC(=N)N)C(N)=O [Peptide 21, Ac-DNal(2’)-Arg-DPhe(pI)-Arg-NH2] (Ac-[d2Nal]R[dPhe(4-I)]R-NH2)",,,,,,mMC1R agonist activity in words (mMC1R): full agonist activity
Ac-DNal(2’)-DNal(2’)-DPhe(pI)-DLys-NH2 (peptide),> 100,> 100,> 100,< 5.5,< 5.5,"% of maximal NDP-MSH response at 100 μM, cAMP AlphaScreen [3]: 20%"
Ac-DNal(2’)-DNal(2’)-Trp-DLys-NH2 (peptide),,> 100,> 100,6.7,5.8,"% of maximal NDP-MSH response at 100 μM, cAMP AlphaScreen [1]: 30%; % of maximal NDP-MSH response at 100 μM, cAMP AlphaScreen [3]: 25%; antagonist Ki = 10^-(pA2), NDP-MSH at mMC4R, cAMP AlphaScreen [5]: 200 nM; antagonist Ki = 10^-(pA2), NDP-MSH at mMC3R, cAMP AlphaScreen [6]: 1.6 µM"
Ac-[d2Nal]R[2Nal][dK]-NH2,> 100,> 100,> 100,7.8,6.2,"% receptor activation relative to NDP-MSH (partial agonist), cAMP AlphaScreen [3]: 50%; apparent EC50 (partial agonist), cAMP AlphaScreen [3]: 3.3 µM"
"CC(=O)N[C@H](Cc1ccc(I)cc1)C(=O)N[C@@H](CCCNC(=N)N)C(=O)N[C@H](Cc1ccc(I)cc1)C(=O)N[C@H](CCCCN)C(N)=O [Peptide 43, Ac-DPhe(pI)-Arg-DPhe(pI)-DLys-NH2] (Ac-[dPhe(4-I)]R[dPhe(4-I)][dK]-NH2)",,,,,,mMC1R agonist activity in words (mMC1R): full agonist activity
"CC(=O)N[C@H](Cc1ccc2ccccc2c1)C(=O)N[C@H](Cc1ccc2ccccc2c1)C(=O)N[C@@H](Cc1c[nH]c2ccccc12)C(=O)N[C@@H](CCCNC(=N)N)C(N)=O [Peptide 6, Ac-DNal(2’)-DNal(2’)-Trp-Arg-NH2] (Ac-[d2Nal][d2Nal]WR-NH2)",,,,,,mMC3R percent maximal stimulatory response (compared to NDP-MSH) (mMC3R): 35% @100μM
"CC(=O)N[C@H](Cc1ccc(I)cc1)C(=O)N[C@@H](CCCNC(=N)N)C(=O)N[C@H](Cc1ccc(I)cc1)C(=O)N[C@@H](CCCNC(=N)N)C(N)=O [Peptide 45, Ac-DPhe(pI)-Arg-DPhe(pI)-Arg-NH2] (Ac-[dPhe(4-I)]R[dPhe(4-I)]R-NH2)",,,,,,mMC1R agonist activity in words (mMC1R): full agonist activity
"CC(=O)N[C@H](Cc1ccc(I)cc1)C(=O)N[C@H](Cc1ccc2ccccc2c1)C(=O)N[C@@H](Cc1ccc2ccccc2c1)C(=O)N[C@H](CCCCN)C(N)=O [Peptide 34, Ac-DPhe(pI)-DNal(2’)-Nal(2’)-DLys-NH2] (Ac-[dPhe(4-I)][d2Nal][2Nal][dK]-NH2)",,,,,,mMC3R percent maximal stimulatory response (compared to NDP-MSH) (mMC3R): 20% @100μM
"CC(=O)N[C@H](Cc1ccc2ccccc2c1)C(=O)N[C@H](Cc1ccc2ccccc2c1)C(=O)N[C@H](Cc1ccc2ccccc2c1)C(=O)N[C@@H](CCCNC(=N)N)C(N)=O [Peptide 3, Ac-DNal(2’)-DNal(2’)-DNal(2’)-Arg-NH2]",,,,,,mMC3R percent maximal stimulatory response (compared to NDP-MSH) (mMC3R): 35% @100μM
Ac-[d2Nal]RWR-NH2,,> 100,> 100,8.3,6.8,"% of maximal NDP-MSH response at 100 μM, cAMP AlphaScreen [1]: 20%; % of maximal NDP-MSH response at 100 μM, cAMP AlphaScreen [3]: 40%"
Ac-DNal(2’)-DNal(2’)-DNal(2’)-Arg-NH2 (peptide),,0.13,,< 5.5,< 5.5,"% of maximal NDP-MSH response at 100 μM, cAMP AlphaScreen [1]: 25%; % of maximal NDP-MSH response at 100 μM, cAMP AlphaScreen [3]: 30%; % of maximal NDP-MSH response at 100 μM, cAMP AlphaScreen [4]: 35%"
Ac-DNal(2’)-DNal(2’)-DNal(2’)-DLys-NH2 (peptide),> 100,> 100,> 100,< 5.5,< 5.5,"% of maximal NDP-MSH response at 100 μM, cAMP AlphaScreen [3]: 55%"
Ac-[d2Nal][d2Nal]WR-NH2,,,,< 5.5,< 5.5,"% of maximal NDP-MSH response at 100 μM, cAMP AlphaScreen [1]: 60%; % of maximal NDP-MSH response at 100 μM, cAMP AlphaScreen [2]: 45%; % of maximal NDP-MSH response at 100 μM, cAMP AlphaScreen [3]: 45%; % of maximal NDP-MSH response at 100 μM, cAMP AlphaScreen [4]: 35%"
B1,> 100,> 100,> 100,7.6,6.2,"agonist EC50, cAMP AlphaScreen [3]: > 100 µM"
B2,> 100,> 100,> 100,8.5,7.5,"agonist EC50, cAMP AlphaScreen [3]: 0.035 µM"
B3,> 100,> 100,,8.7,7.4,"% receptor activation relative to NDP-MSH (partial agonist), cAMP AlphaScreen [3]: 50%; apparent EC50 (partial agonist), cAMP AlphaScreen [3]: 7.9 µM; % of maximal NDP-MSH response at 100 μM, cAMP AlphaScreen [4]: 25%"
B4,> 100,> 100,> 100,8.5,7.4,"agonist EC50, cAMP AlphaScreen [3]: 0.007 µM"
